# The DeepSol protein solubility set
# Test: soluble on expression in E. coli; label from the status in PepcDB or PDB records
row,Sequence,soluble on expression in E. coli
1,MGSDKIHHHHHHMGKLVVQGGAVLEGEVEISGSKNAALPIMAAAILCDEEVILKNVPRLQDVFVMIDILRSIGFRVEFEENELKIKRENDISQEVPYELVRKMRASFNVLGPIAVRTGRAKVALPGGCSIGVRPVDFHLEGLKKMGFSIKVEHGFVEACFERRIDYVTITLPFPSVGATEHLMTTAALLKGARVVIENAAMEPEIVDLQNFINRMGGHIEGAGTSRIVIEGVEKMQGVEYSIIPDRIEAGTYLVAIAASRGKGLVKNVNPDHLTNFFEKLEETGAKLKVLGNEVEIEMRERPKAVDVTTNPYPGFPTDLQPQMMAYLSTASGVSVITENVFKTRFLHVDELKRMGADIEVSGNVAIVKGVEKLSGAPVEGTDLRATAALLIAGIIADGVTEISNVEHIFRGYEDVIDKFSELGAKIEYVEKEN,not soluble
2,MGHHHHHHSHMDNAVDRHVFYISDGTAITAEVLGHAVMSQFPVTISSITLPFVENESRARAVKDQIDAIYHQTGVRPLVFYSIVLPEIRAIILQSEGFCQDIVQALVAPLQQEMKLDPTPIAHRTHGLNPNNLNKYDARIAAIDYTLAHDDGISLRNLDQAQVILLGVSRCGKTPTSLYLAMQFGIRAANYPFIADDMDNLVLPASLKPLQHKLFGLTIDPERLAAIREERRENSRYASLRQCRMEVAEVEALYRKNQIPWINSTNYSVEEIATKILDIMGLSRRMY,not soluble
3,MMIVGCYCMNKLVFCLMGPTASGKTGLACELLTHFPFEIISVDSAMIYRDMNIGTAKPSIHELQRAPHYLIDIKDPVESYSAAQFCTDALSLCAEIIKRGNIPLLVGGTMMYFNALQKGLATLPEADEAVRKRLEEEALSQGWDFLYQKLSQLDPVTAARIHAHDTQRIQRALEVYYLTGSTLSTYLTGPHERPDYYFVNLALFPEQRSWLHERIAQRFDAMLSEGFIEEVQQLQAKWPIQINLPSMRCVGYRQILQHLAGHYDYETMREKGIAATRQLAKRQLTWLRHWEGALFYDSQNVGFNTDIIAKIREILDNTVSNLEHHHHHH,not soluble
4,MSLSEFEKYYPKISNLSTKLLDNPELGFKEYQTSKLIEDEIKSISPSIKVEHYLGTGLKVIFDNHKPKTIGIIAEMDDLYQPKHFKANPETGAAHACGHYTQVGIALAMINEIVKAERLKEFGTNLAFIFTPAEEFVDLDWRQEQKAKHKLDYFGGKQEAIKQGLFDHINYCVSVHAIGEEFKQRTVEINCDLAGFNFKYFDFYGEASHAAFAPESGVNAQSIATLFTTALALQRQQIKNPNRIRFNPVVIGENTESINVIPDHVKMGSDLSFFDIKYVQSLMKKFDQAAQGCASALGGKAKITTQVGYLPLHSNREMNALVKDTFLQEDRIPGLIENRGYTMAAGDIGDVGFIMPTIQIGYGGWTGTIHGSDFKLIDPEFVLKIFPEFVFNSTLNISNHLEKIDEYHHTKREYLKALKKMEGEGHHHHHH,not soluble
5,MGSDKIHHHHHHMQIRADFDSGNIQVIDASDPRRIRLAIRPDLASQHFQWFHFKVEGMAPATEHCFTLVNAGQSAYSHAWSGYQAVASYDGERWFRVPSQYDADGLHFQLEPEESEVRFAYFEPYSRERHARLVERALGIEGVERLAVGTSVQGRDIELLRVRRHPDSHLKLWVIAQQHPGEHMAEWFMEGLIERLQRPDDTEMQRLLEKADLYLVPNMNPDGAFHGNLRTNAAGQDLNRAWLEPSAERSPEVWFVQQEMKRHGVDLFLDIHGDEEIPHVFAAGCEGNPGYTPRLERLEQRFREELMARGEFQIRHGYPRSAPGQANLALACNFVGQTYDCLAFTIEMPFKDHDDNPEPGTGWSGARSKRLGQDVLSTLAVLVDELR,not soluble
6,DYSQKLQNLISEQLVGCGFNEILNNSLTAASYYEGSETYKNENLVYLMNPLSNDLNVMRQTLLFGGLESIQHNANRKNADLKFFEFGNCYFYNAEKKNPEKVLAAYAEEYHLGLWVTGKRVSNSWAHPDENSSVYELKAYVLNIFTRLGLNFGNVVFGNLTNDIYSTAISVHTRGGKLLATFGIISKKIQKAFDIDNEVYYAEINWKELM,not soluble
7,MHHHHHHSSGVDLGTENLYFQSNAMTAPSQVLKIRRPDDWHVHLRDGDMLKTVVPYTSEIYGRAIVMPNLASPITTVDAAIAYRQRILDAVPAGHDFTPLMTCYLTDSLDADELERGFHEGVFTAAKLYPANATTNSSHGVTSVDAIMPVLERMEKLGIPLLVHGEVTHADVDIFDREARFIDTVMEPLRQRLTALKVVFEHITTKDAAQYVRDGNDYLAATITPQHLMFNRNDMLVGGIRPHLYCLPILKRNIHQQALRELVASGFTRAFLGTDSAPHSRHRKETSCGCAGCFNAPSALGSYAAVFEEMNALAHFEAFCSLNGPQFYGLPMNTGWVELVRDEQQIPGNIALADDSLVPFLAGETVRWSVKK,soluble
